Measured values taken from a protein production outcome set (Wang et al. 2014).

Assay: label from the status in PepcDB records
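Further: failed if final PepcDB status was selected cloned or expressed and not failed if soluble or beyond.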

| Sequence | protein production |
| --- | --- |
| MDKRRVVVTGVGAVTPIGNDAETSWENAKKGVNGVAKMTRLNPDDFPVKIAAELKDFDVEKYLEKKEARKMDRFTHYAIASAEMAVQDSGLVIDDSNANRVGVWIGSGIGGMETFETQYEIFLNRGHRRVSPFFVPMMIPDMGSGQVSIRFGAKGINSTTVTACATATNSIGDAFKVIERGDADAMITGGAEAPITKMSLAGFTANKALSLNPDPETACRPFDKDRDGFIIGEGAGIVILEEYEHAKARGAKIYAEIVGYGATGDAYHITAPAPNGEGAARAMKMAIDDAGLTPDKVDYINAHGTSTPYNDEYETQAIKTVFGEHAKKLAISSTKSMTGHTLGASGGIEAIFALLTIRDNIIAPTIHLKNQDEVCDLDYVPNEAREANVNVVISNSFGFGGHNATLVFKRIED | not failed |
| MDLSLSTRTVGDRTVVEVGGEIDVYTAPKLREQLVELVNDGNFHLVVDMEGVDFLDSTGLGVLVGGLKRVRAHEGSLRLVCNQERILKIFRITGLTKVFPIHTSVEEAVAATD | failed |
| MSDDNSHSSDTVNSKKGFFSLLLSQLFHGEPKNRDELLALIRDSGQNELIDEDTRDMLEGVMDIADQRVRDIMIPRSQMITLKRNQTLDECLDVIIESAHSRFPVISEDKDHIEGILMAKDLLPFMRSDAEAFSMDKVLRTAVVVPESKRVDRMLKEFRSQRYHMAIVIDEFGGVSGLVTIEDILELIVGEIEDEYDEEDDIDFRQLSRHTWTIRALASIEDFNDAFGTHFSDEEVDTIGGLVMQAFGHLPARGETIDIDGYQFKVAMADSRRIIQVHVRIPDDSPQPKLDE | not failed |
| MDVPSPCNVLMLYPLFTAESFWSFGESCKLMGVKRPAAPLGLITVAAMLPADWTVRLIDCNTSPLGDEDLAWADVVFTGGMLPQQADTLRLIELCRAAGKPVVVGGPDPTSSPHIYERADFRVLGEAESVIDEFIAAWEGGARSGVFTAPKFQADVTRTPVPRFDLLKFEDYLYIGVQYSRGCPFTCEFCDIIELYGRVPRTKTAEQMFVELETLYRMGYRGHLDFVDDNFIGNKKSLRLFLPQLAEWQRAHGYPFEFSTEASINLADDPELLEQMGAANFFGIFVGIESPDPATLVAMRKKQNTRRNIAESIHKIYAAGILVTAGFIVGFDNEKVSMAEAMIEFIEEAAIPVSMVGLLYALPNTQLTRRLEREGRLHPGHDLAPTIGADQCTDGINFDPVRPLRDILMDYKRVLERIYSPAAYAGRIDRLMTLLDRSRQRHALAEGDIRAKLGAMETVHRVVTAIPEARGPLWQTFMNCAKRDTSSARIAVQMIAAYAHLGPFSRKVIDAIDARLAALDDETVIPAATIDATAARHLA | failed |
| MALPRPTSPHARGSNRTPAIMRLVLGACVPGLLTLTWLYGPGTLLNLAWASLVALACEAAMLALRKRPPGVFLKDGSALVTALLLAVALPPYAPWWLTLVATFFALVFGKHLYGGLGQNPFNPAMLGYVVALVSFPLEMTRWPSPDSALGLPDSLREFLGLATRPDAWAHATALDVLKTDRSLTVDELFAGNPAFGHLGSAGSEWVNLAFLLGGLFLLWRRLFTWHAPLGMLAGLFAMSLLFWNGSGSDSHGSPLFHLFSGATMLGAFFIVTDPVSGATSNRGRLVFGLGVGVLTYVIRAWGGYPDGVAFAVLLMNLAAPTIDYYTRPRTYGHRKAERGFKAGD | failed |
| MGFSKVPLIWLCHPKIIAIDSKHVEVRIPLRRRTKNHLNSMYFGALAVGADVAGGFLAMSKAQEKGEAISLAFKGVKAEFLKRPEADVHFVCNDGHVIDEMLDHTIATGERVNRDVKIIALCPSLHGQEPMAEFALTLSLEHHHHHH | failed |
| METMFDTLLQLPLFQGLCHEDFTSILDKVKLHFIKHKAGETIIKSGNPCTQLCFLLKGEISIVTNAKENIYTVIEQIEAPYLIEPQSLFGMNTNYASSYVAHTEVHTVCISKAFVLSDLFRYDIFRLNYMNIVSNRAQNLYSRLWDEPTLDLKSKIIRFFLSHCEKPQGEKTFKVKMDDLARCLDDTRLNISKTLNELQDNGLIELHRKEILIPDAQKLL | not failed |
| MLTLDLSAVRCQNGVPFLRYYWNLPVNQSHSGPLANNHAQLGLLFISVAVLFWGMLPIALKLSGSFIDPVTLTWFRFLVALIVSILVQWSAGSLKQFAALDAKVWLRLILAGLFLMLNYVSFVYSLDYLAPGAAQLNFQTSPFFLAFGGVLFFKERLNAIQLSCFASLALGMLMFFHPFLDFSATDNHEIWLGVMIVQFSALSWTTYALLQKSLLNRLSPANVLLVIYALGIFAMAPFSDFSQFAQMNSFDWQVALFCAANTLIAYGCFGQSMKYWPTAQVSAMLALTPVFSFSATALVVSIGWWPEVFRADELDALSLFGIGVIIVSVMVVQLLPLYRQRRARRLQPI | failed |
| MIKSDDAGKLILRLALGILVIMHGLAKLSSGVGGIAGMLSSHGLPGFLAYFAYVGEIVGPLLIILGIYCRLGALLVVLNMVVAILLAHMGQLFSISNTGGWALELQGMFLFGALALAFMGAGRFSLAGSGGRWN | failed |
| KVILYARVSSSTQKDELVNQVKYLEEQVKEYDLVITDIGSGLNMKRKGFLKLLRMILNNEVSRVVVAYPDRLVRVGFEILEEVCKAHNCEIVVLNQEDKEEELVEDLMSALVSFSGKLYGMRSHEYEKVKKCAEELKNWKI | not failed |
| MNIYSLFVVAIALSLDAFGVALSIGLDSCVKRKNKLLFAISFGFFQFLCTFIGAYSGFLFNTYITYVPQIIGGMIIAFVGAFMIKEGFDNKEEKLLLNFKMYFVLGISVSIDAAVVGFTMFNKISSNYVILGDSVFIGIVTLILSIIAFIISRYLKRIQLVCKYADYIGGIILVIFGLKMMFF | failed |
| MTRASLDKQPHEVASMFDDVAERYDLTNDLLSLGQDRVWRREVAKAVDARPAQKILDLAAGTATSSLPFARAGAYVVPCDFSLGMLRVGKKNHPWLPLTAGDATKLPFKDDTFDAVTISFGLRNVQDTDTALSELYRVTKPGGRVVICEFSHPTWAPFRTVYTEYLMRALPPVARAVSSNPDAYVYLAESIRAWPTQPELAERLRKAGWSKVAWRNLTGGVVALHRGFKAV | failed |
| GAAGPWRLPIGNSVVASSPPVLQANAETWLDFTDLVFIDPVGTGYSRFVASGDEVRKHFYAVEGDISAMAVVIRRWLEKNDRLVSPKYLAGESYGGIRGPKVVDNLQTKQGVGVNGLILVSPVLDFRDLSGSSLLQYAARLPSMTAVARQQKGKVNRADLADVESYARSEFLTDLVKGEADKEATTRLADRVSALTGIDKTVSRRLAGRFDTREFQREFDRDRGRVTGRFDGAKLGLDPFPDSSAAHFGDPSADSLIAPLTSAAVQLTRSTLNWKPDGSYELLNGSVAEQWDFGRGRQPLESTTQLREILSVDPSLQVLVTGGLFDLAAPYFGTQMVLDQLPPTLAEKRVKFVVYPGGHMFYAEDAARQSLHDEVKAMMK | failed |
| MHLSRCRKCGRVMKGERIDPYRVKLTCSCGFSDFRTMTEKVKTVNPFFQKGGFSPLLESERGKMVLTMQRANREHLEIISLEEISMLVSSDFDLPEVLQHVTAKVATQLKVSVCNIYLREGDEVVLAATHGFDPAFIGKIRIKIGDGITGSVARDGQYISLSRASQDPRYRYFPELQEEKYNSMLSFPIGDKKEVYGVINLNTTSIRSFHEDEIYFVSIIANLILTAIKLRQQVASSRKAAEASA | failed |
| PGGPEEQWQRAIHERGEAVCPTCNVVTRKTLVGLKKHMEVCQKLQDALKCQHCRKQFKSKAGLNYHTMAEHSAKPSDAEASEGGE | not failed |
| MPSIKIRENEPFEIAIRRFKRACEKAGVLSEVRRREYYEKPTEERKRKAAAAIKRHLKKLSRERFALQNLRKGRPQQLEHHHHHH | not failed |
| MFPYFESVATASTEFHAIEPDPHMRRQAAEQANTQATPIHIESSPAEALPYYEDTFDVVITSMVFCTIPDIESAMSEITRVLKPGGELRFFEHVIDDGWRARLQSALAPLWKRLAGGCHLTRQTGTRLVADQSFDVVEIERLNLGITPIRPFVRGRLRKRSVSSTRLEHHHHHH | failed |
| MKPMEAAMGLIRFCLLFLALATPVNAAKLFLTTEVYPPYNLQASDGSVHGVYFDQLKIVLQDTDTDYEVAVMPWARAIALATTQAMHCVFATARTPEREKLFKWVAPIHTDRNILVARREANIEASSLEDARRYRVGTQRGDYTEALLEKLGFPQVDVGADFEITLNKLKLGRIDLMPMSESTLKSLPANSFKEVITLSRQQLGLACNKTVPDQIIAKLQARLDKLIADGTQQQIFDRYSLVSP | failed |
| MSDKFHILLLNGPNLNLLGTREPEKYGYTTLAEIVSQLEIQAQGMDVALSHLQSNAEHALIDSIHQARGNTDFILINPAAFTHTSVALRDALLGVQIPFIEIHLSNVHAREPFRHHSYLSDIAVGVICGLGADGYNFALQAAVNRLSKSN | not failed |
| MSETELRKRQAQFTRELHGDDIGKKTGLSALMSKNNSAQKEAVQKYLRNWDGRTDKDAEERRLEDYNEATHSYYNVVTDFYEYGWGSSFHFSRFYKGESFAASIARHEHYLAYKAGIQRGDLVLDVGCGVGGPAREIARFTGCNVIGLNNNDYQIAKAKYYAKKYNLSDQMDFVKGDFMKMDFEENTFDKVYAIEATCHAPKLEGVYSEIYKVLKPGGTFAVYEWVMTDKYDENNPEHRKIAYEIELGDGIPKMFHVDVARKALKNCGFEVLVSEDLADNDDEIPWYYPLTGEWKYVQNLANLATFFRTSYLGRQFTTAMVTVMEKLGLAPEGSKEVTAALENAAVGLVAGGKSKLFTPMMLFVARKPENAETPSQTSQEATQ | failed |
| MGMVFGKIAVETPKYTVTKSGDGYEIREYPPAVAAEVTYDASEFKGDKDGGFQLLAKYIGVFGKPENEKPEKIAMTAPVITKEGEKIAMTAPVITKESEKIEMTSPVVTKEGGGEGRKKLVTMQFLLPSMYKKAEEAPRPTDERVVIKEEGGRKYGVIKFSGIASESVVSEKVKKLSSHLEKDGFKITGDFVLARYNPPWTLPPFRTNEVMIPVE | failed |
| MVKTKKEDLNQFLIPRLNTIYETLQLFDGTASPTVERVNWNDVLQMSDHLSKQATIVGMLWTGESPKADSLKETMESYFNALQGFLLCCHGSTLGAGPTLSSIIHVSVKQIVDSSFRLLQGSVSLYEGSYEKDKKPSIPQLSGVVWEACSSFKKVPATNITAIGRAITQVAVSMKDVLREMKEVKPACPLSECEASGDNMSSDDDDDDDLGDDLSPEEMEVATMVTEIVSETIMVIKELIRVITGMIKMENPKDNSGFVESLEKLLKLCQGTGVQIDELGACVYPPQEMNKMKQTVKVIQGNLDEFETEVERLKSSSDGFSGACGKLRNSLKHMETELDKRCEAELVVEMQNVTLDS | failed |
| MTTPNRFVAGAIDLGEVKARAEARSQAQRAGQSSVTEVEPTVTITMDNVEEQLIKRSMQVPVVVLIGTPRSPDSEQLRAD | failed |
| MKDTDETAFLNSLFMDFTSENELELFLKSLDEVWSEDLYSRLSAAGLIRHVISKVWNKEQHRISMVFEYDSKEGYQKCQEIIDKEFGITLKEKLKKFVFKIHNNRGVVVSEFIRST | not failed |
| MHMLFYKSYVREFIGEFLGTFVLMFLGEGATANFHTTGLSGDWYKLCLGWGLAVFFGILVSAKLSGAHLNLAVSIGLSSINKFDLKKIPVYFFAQLLGAFVGTSTVYGLYHGFISNSKIPQFAWETSRNPSISLTGAFFNELILTGILLLVILVVVDENICGKFHILKLSSVVGLIILCIGITFGGNTGFALNPSRDLGSRFLSLIAYGKDTFTKDNFYFWVPLVAPCVGSVVFCQFYDKVICPLVDLANNEKDGVDL | not failed |
| MDRAAFPDCCVFLFGFFRRDFGAAGLYGMHDAGLLTGVQLVVAAITLTLFMLCIAQFMMTVKERGFKMALAISGFIFPSALLAGFIVNTLMTALRVKL | failed |
| SIEVRGKIKLGLLPETYEHLQPILFEFQDQYPQVELDIRNINNGFIDMFQQGLDIALHGGMLFDSDIVARKILTLDRCVVASPNYLQTHGTPATLEELSDHQCICFRWPNGNVDNLWHFQEQNVALKPKLISNNIGFIK | failed |
